Laboratory results: patent publication US20260337278 (published 2026)
Where two headings read alike, the source gives them in different places.

How the values were obtained:
Assay in all cases: BLI
[1] = molecular target: T1, EGFR (wild-type, His-tagged or biotinylated) (human, UniProt P00533)
[2] = molecular target: T2, EGFRvIII (human, UniProt P00533)
[3] = molecular target: T1, EGFR (wild-type, His-tagged or …); remark: listed apart in the source
[4] = molecular target: T2, EGFRvIII; remark: listed apart in the source

Kd [1]	Kd [2]	Kd [3]	Kd [4]	Binder
4.89 nM	0.573 nM			SI-95X61 (antibody) chain 1: not shown chain 2: EIVLTQSPSTLSVSPGERATFSCRASQSIGTNIHWYQQKPGKPPRLLIKYASESISGIPDRFSGSGSGTEFTLTISSVQSEDFAVYYCQQNNNWPTTFGPGTKLTVLRTVAAPSVFIFPPSDEQLKSGTASVVCLLNNFYPREAKVQWKVDNALQSGNSQESVTEQDSKDSTYSLSSTLTLSKADYEKHKVYACEVTHQGLSSPVTKSFNRGECGGGGSGGGGGSGGGGSGGGGSQVQLQESGPSLVKPSQTLSLTCTVSGYSITSDFAWNWIRQFPGRKLEWMGYISYSGNTRYNPSLKSRFTISRDTSKNQFYLKLRSVTIADTAVYYCVTAGRGFPYWGQGTLVTVSSGGGGSGGGGSGGGGSDIVMTQSPSSVSLSLGDRVTITCHSSQDINSNIGWLQQKPGKAFKGLIYHGTNLDDGVPSRFSGSGSGADYTLTISSLQAEDFATYYCVQYAQFPWTFGPGTKLEIK
		7.56 nM	0.579 nM	SI-95X28 (antibody) chain 1: not shown chain 2: DILMTQSPSSMSVSLGDTVSITCHSSQDINSNIGWLQQRPGKSFKGLIYHGTNLDDEVPSRFSGSGSGADYSLTISSLESEDFADYYCVQYAQFPWTFGGGTKLEIKGGGGSGGGGSGGGGSDVQLQESGPSLVKPSQSLSLTCTVTGYSITSDFAWNWIRQFPGNKLEWMGYISYSGNTRYNPSLKSRISITRDTSKNQFFLQLNSVTIEDTATYYCVTAGRGFPYWGQGTLVTVSAGGGGSGGGGSGSGSGGGGGSGGGGSGGGGSDIQMTQSPSSLSASVGDRVTITCRSSQNIVHSNGNTYLDWYQQTPGKAPKLLIYKVSNRFSGVPSRFSGSGSGTDFTFTISSLQPEDIATYYCFQYSHVPWTFGQGTKLQITRTVAAPSVFIFPPSDEQLKSGTASVVCLLNNFYPREAKVQWKVDNALQSGNSQESVTEQDSKDSTYSLSSTLTLSKADYEKHKVYACEVTHQGLSSPVTKSFNRGEC
		10.1 nM	1.12 nM	SI-95X29 (antibody) chain 1: not shown chain 2: DIQMTQSPSSLSASVGDRVTITCRSSQNIVHSNGNTYLDWYQQTPGKAPKLLIYKVSNRFSGVPSRFSGSGSGTDFTFTISSLQPEDIATYYCFQYSHVPWTFGQGTKLQITRTVAAPSVFIFPPSDEQLKSGTASVVCLLNNFYPREAKVQWKVDNALQSGNSQESVTEQDSKDSTYSLSSTLTLSKADYEKHKVYACEVTHQGLSSPVTKSFNRGECSGSGSGGGGGSGGGGSGGGGSDVQLQESGPSLVKPSQSLSLTCTVTGYSITSDFAWNWIRQFPGNKLEWMGYISYSGNTRYNPSLKSRISITRDTSKNQFFLQLNSVTIEDTATYYCVTAGRGFPYWGQGTLVTVSAGGGGSGGGGSGGGGSDILMTQSPSSMSVSLGDTVSITCHSSQDINSNIGWLQQRPGKSFKGLIYHGTNLDDEVPSRFSGSGSGADYSLTISSLESEDFADYYCVQYAQFPWTFGGGTKLEIK
		0.68 nM	0.375 nM	SI-95X3 (antibody) chain 1: not shown chain 2: DILMTQSPSSMSVSLGDTVSITCHSSQDINSNIGWLQQRPGKSFKGLIYHGTNLDDEVPSRFSGSGSGADYSLTISSLESEDFADYYCVQYAQFPWTFGGGTKLEIKRTVAAPSVFIFPPSDEQLKSGTASVVCLLNNFYPREAKVQWKVDNALQSGNSQESVTEQDSKDSTYSLSSTLTLSKADYEKHKVYACEVTHQGLSSPVTKSFNRGEC
4.65 nM	0.576 nM			SI-95X66 (antibody) chain 1: not shown chain 2: DILMTQSPSSMSVSLGDTVSITCHSSQDINSNIGWLQQRPGKSFKGLIYHGTNLDDEVPSRFSGSGSGADYSLTISSLESEDFADYYCVQYAQFPWTFGGGTKLEIKRTVAAPSVFIFPPSDEQLKSGTASVVCLLNNFYPREAKVQWKVDNALQSGNSQESVTEQDSKDSTYSLSSTLTLSKADYEKHKVYACEVTHQGLSSPVTKSFNRGEC
		0.686 nM	0.628 nM	SI-95X35 (antibody) chain 1: not shown chain 2: DILMTQSPSSMSVSLGDTVSITCHSSQDINSNIGWLQQRPGKSFKGLIYHGTNLDDEVPSRFSGSGSGADYSLTISSLESEDFADYYCVQYAQFPWTFGGGTKLEIKRTVAAPSVFIFPPSDEQLKSGTASVVCLLNNFYPREAKVQWKVDNALQSGNSQESVTEQDSKDSTYSLSSTLTLSKADYEKHKVYACEVTHQGLSSPVTKSFNRGEC
7.06 nM	1.24 nM			SI-95X67 (antibody) chain 1: not shown chain 2: DILMTQSPSSMSVSLGDTVSITCHSSQDINSNIGWLQQRPGKSFKGLIYHGTNLDDEVPSRFSGSGSGADYSLTISSLESEDFADYYCVQYAQFPWTFGGGTKLEIKRTVAAPSVFIFPPSDEQLKSGTASVVCLLNNFYPREAKVQWKVDNALQSGNSQESVTEQDSKDSTYSLSSTLTLSKADYEKHKVYACEVTHQGLSSPVTKSFNRGEC
		13.4 nM	1.21 nM	SI-95X25 (antibody) chain 1: not shown chain 2: DVQLQESGPSLVKPSQSLSLTCTVTGYSITSDFAWNWIRQFPGNKLEWMGYISYSGNTRYNPSLKSRISITRDTSKNQFFLQLNSVTIEDTATYYCVTAGRGFPYWGQGTLVTVSAGGGGSGGGGSGGGGSDILMTQSPSSMSVSLGDTVSITCHSSQDINSNIGWLQQRPGKSFKGLIYHGTNLDDEVPSRFSGSGSGADYSLTISSLESEDFADYYCVQYAQFPWTFGGGTKLEIKGGGGSGGGGSGSGSGGGGGSGGGGSGGGGSDIQMTQSPSSLSASVGDRVTITCRSSQNIVHSNGNTYLDWYQQTPGKAPKLLIYKVSNRFSGVPSRFSGSGSGTDFTFTISSLQPEDIATYYCFQYSHVPWTFGQGTKLQITRTVAAPSVFIFPPSDEQLKSGTASVVCLLNNFYPREAKVQWKVDNALQSGNSQESVTEQDSKDSTYSLSSTLTLSKADYEKHKVYACEVTHQGLSSPVTKSFNRGEC
		10.7 nM	0.507 nM	SI-95X27 (antibody) chain 1: not shown chain 2: DILMTQSPSSMSVSLGDTVSITCHSSQDINSNIGWLQQRPGKSFKGLIYHGTNLDDEVPSRFSGSGSGADYSLTISSLESEDFADYYCVQYAQFPWTFGGGTKLEIKGGGGSGGGGSGGGGSDVQLQESGPSLVKPSQSLSLTCTVTGYSITSDFAWNWIRQFPGNKLEWMGYISYSGNTRYNPSLKSRISITRDTSKNQFFLQLNSVTIEDTATYYCVTAGRGFPYWGQGTLVTVSAGGGGSGSGSGGGGGSGGGGSGGGGSDIQMTQSPSSLSASVGDRVTITCRSSQNIVHSNGNTYLDWYQQTPGKAPKLLIYKVSNRFSGVPSRFSGSGSGTDFTFTISSLQPEDIATYYCFQYSHVPWTFGQGTKLQITRTVAAPSVFIFPPSDEQLKSGTASVVCLLNNFYPREAKVQWKVDNALQSGNSQESVTEQDSKDSTYSLSSTLTLSKADYEKHKVYACEVTHQGLSSPVTKSFNRGEC
		10.5 nM	1.08 nM	SI-95X31 (antibody) chain 1: not shown chain 2: DIQMTQSPSSLSASVGDRVTITCRSSQNIVHSNGNTYLDWYQQTPGKAPKLLIYKVSNRFSGVPSRFSGSGSGTDFTFTISSLQPEDIATYYCFQYSHVPWTFGQGTKLQITRTVAAPSVFIFPPSDEQLKSGTASVVCLLNNFYPREAKVQWKVDNALQSGNSQESVTEQDSKDSTYSLSSTLTLSKADYEKHKVYACEVTHQGLSSPVTKSFNRGECGGGGSGGGGSGSGSGGGGGSGGGGSGGGGSDVQLQESGPSLVKPSQSLSLTCTVTGYSITSDFAWNWIRQFPGNKLEWMGYISYSGNTRYNPSLKSRISITRDTSKNQFFLQLNSVTIEDTATYYCVTAGRGFPYWGQGTLVTVSAGGGGSGGGGSGGGGSDILMTQSPSSMSVSLGDTVSITCHSSQDINSNIGWLQQRPGKSFKGLIYHGTNLDDEVPSRFSGSGSGADYSLTISSLESEDFADYYCVQYAQFPWTFGGGTKLEIK
		7.94 nM	1.45 nM	SI-95X24 (antibody) chain 1: not shown chain 2: DVQLQESGPSLVKPSQSLSLTCTVTGYSITSDFAWNWIRQFPGNKLEWMGYISYSGNTRYNPSLKSRISITRDTSKNQFFLQLNSVTIEDTATYYCVTAGRGFPYWGQGTLVTVSAGGGGSGGGGSGGGGSDILMTQSPSSMSVSLGDTVSITCHSSQDINSNIGWLQQRPGKSFKGLIYHGTNLDDEVPSRFSGSGSGADYSLTISSLESEDFADYYCVQYAQFPWTFGGGTKLEIKGGGGSGSGSGGGGGSGGGGSGGGGSDIQMTQSPSSLSASVGDRVTITCRSSQNIVHSNGNTYLDWYQQTPGKAPKLLIYKVSNRFSGVPSRFSGSGSGTDFTFTISSLQPEDIATYYCFQYSHVPWTFGQGTKLQITRTVAAPSVFIFPPSDEQLKSGTASVVCLLNNFYPREAKVQWKVDNALQSGNSQESVTEQDSKDSTYSLSSTLTLSKADYEKHKVYACEVTHQGLSSPVTKSFNRGEC
		8.84 nM	1.24 nM	SI-95X30 (antibody) chain 1: not shown chain 2: DIQMTQSPSSLSASVGDRVTITCRSSQNIVHSNGNTYLDWYQQTPGKAPKLLIYKVSNRFSGVPSRFSGSGSGTDFTFTISSLQPEDIATYYCFQYSHVPWTFGQGTKLQITRTVAAPSVFIFPPSDEQLKSGTASVVCLLNNFYPREAKVQWKVDNALQSGNSQESVTEQDSKDSTYSLSSTLTLSKADYEKHKVYACEVTHQGLSSPVTKSFNRGECGGGGSGSGSGGGGGSGGGGSGGGGSDVQLQESGPSLVKPSQSLSLTCTVTGYSITSDFAWNWIRQFPGNKLEWMGYISYSGNTRYNPSLKSRISITRDTSKNQFFLQLNSVTIEDTATYYCVTAGRGFPYWGQGTLVTVSAGGGGSGGGGSGGGGSDILMTQSPSSMSVSLGDTVSITCHSSQDINSNIGWLQQRPGKSFKGLIYHGTNLDDEVPSRFSGSGSGADYSLTISSLESEDFADYYCVQYAQFPWTFGGGTKLEIK
		4.17 nM	0.593 nM	SI-95X18 (antibody) chain 1: not shown chain 2: DIQMTQSPSSLSASVGDRVTITCRSSQNIVHSNGNTYLDWYQQTPGKAPKLLIYKVSNRFSGVPSRFSGSGSGTDFTFTISSLQPEDIATYYCFQYSHVPWTFGQGTKLQITRTVAAPSVFIFPPSDEQLKSGTASVVCLLNNFYPREAKVQWKVDNALQSGNSQESVTEQDSKDSTYSLSSTLTLSKADYEKHKVYACEVTHQGLSSPVTKSFNRGEC
